The record followed here is the nanobody polyreactivity screen of Harvey et al. (2022).

This data set can be described thus: yeast display, Sf9 membrane polyspecificity reagent, FACS + sequencing; frameworks hold sequencing errors. In short, it runs like this: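 Polyreactivity labels are assigned by the sorting gate from which each nanobody was recovered. The gates were low and high (top ~1%), set on anti-HA fluorescence for expression and streptavidin fluorescence for reagent binding. Before sorting, galactose-induced (36–48 hours) yeast display cells were stained for 1 hour at 4 °C with 10% biotinylated, detergent-solubilized Sf9 membrane reagent.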
Take “QVQLGESGGGLVQAGGSLRLSCAASGLIFVWNDMGWYRQAPGKEGELVADISDGSTYADSVKGRFTISRDNAKNTVYVQMNRLQPEHTAVYYCNKDNHDVELPVEFEYWGQGTQVTVSS”: the “polyreactivity (PSR sort gate)” value is given as “high polyreactivity”.

Take “QVQLGESGGGLVQAGGSLRLSCAASGNIFYRYAMGWYRQAPGKERELVAAITSDGSTYYADSVKGRFTISRDNAKNTVYLQMNSLKPEDTAVYYCAARRGTGSYSYRYPYGYDYWGQGTQVTVSS”: the “polyreactivity (PSR sort gate)” value is “low polyreactivity”.

Turning to “QVQLGESGGGLVQAGGSLRLSCAASGRIFGAYAMGWYRPAPGKERELVAAITSRGGNTYYADSVKGRFTISRDNAKKTAYLQLNSLKPQDTAVYYCAARHDKRRQYYVGQSAFDYGGQGTQVTVSS”, the “polyreactivity (PSR sort gate)” value is on record as “low polyreactivity”.

As for “QVQLGESGGGLVQAGGSLRLSCAASGRIFSKNAMGWYRQAPGKERELVASIRQSGSNTYADSVKGRFTISRVNAKNTVYVQMNSLKPEDTAVYNCAASYFPLNSGRKVGYWGQGTQVTVSS”, the “polyreactivity (PSR sort gate)” value is reported as “low polyreactivity”.

As to “QVQLGESGGGLVQAGGSLRLSCAASGRIFSYYAMGWYRQAPGKERELVATIDRSGDPTSYADSVKGRFTISRDNAKNTVYLQMNSLKPEDTAVYYCAATSKRARYDSWGHGTQVTVSS”, the “polyreactivity (PSR sort gate)” value is on record as “high polyreactivity”.

With “QVQLGESGGGLVQAGGSLRLSCAASGRTFLKNALGWYRPAPGKERELVAAITSGGSTNYADSVKGRFTISRDNAKNTVYFQMNCLKPEDTAVYYCAAEYTYGSPYDYWGQGTQVTVSS”, the “polyreactivity (PSR sort gate)” value is “low polyreactivity”.

“QVQLGESGGGLVQAGGSLRLSCAASGRTFWSYAMGWYREAAGKERELVAAITSSGGTTNDADSVKGRFTISRDNAKNTVYLQMNSLKPEDTAVYYCAAYSWYFGSRYDYWGQGTQVTVSS”: the “polyreactivity (PSR sort gate)” value was “low polyreactivity”.

In the case of “QVQLGESGGGLVQAGGSLRLSCAASGRTFYTNARGWYRQAAGKARELAADISRGGTTYYADSVKGRFTISRDNAKNTVYLQMNSLKPQDTAVYYSAAEGHELTEGDSWGQGTQVTVSS”, the “polyreactivity (PSR sort gate)” value is reported as “low polyreactivity”.

Take “QVQLGESGGGLVQAGGSLRLSCAASGSIFAYYAMGWYRQAPGKERELVAGISGSGGSTYYADSVKGRFTISRDNAKNTVYLQMNSLKPEDTAVYYCAVDGRRNGDVRYNYWGQGTQVTVSS”: the “polyreactivity (PSR sort gate)” value is reported as “high polyreactivity”.

On to “QVQLGESGGGLVQAGGSLRLSCAASGSIFRGYAMGWYRQAPGKGRELVAAISWSGASTYYADSVKGRFTISLDNAKNTVYLQMNSLKPEDTAVYYCAAVQWTGYPFDYWGQGTQVTVSS”, for which the “polyreactivity (PSR sort gate)” value is given as “high polyreactivity”.

Regarding “QVQLGESGGGLVQAGGSLRLSCAASGSIFRSYAMGWYRQAPGKERELVAAISWRGGRTYYADSVKGRFTISRDNAKNTVYLQMNSLKPEDTAVYYCAARNRAQQGTRDHDYWGQGTQVTLSS”, the “polyreactivity (PSR sort gate)” value is “high polyreactivity”.

As for “QVQLGESGGGLVQAGGSLRLSCAASGSIFVRNAMGWYRQAPGKERELVAAINGRGTSTYYADSVKGRFTISRDNAKNTVYLQMNSLKPEDTAVYYCATSLTSPRRAYGYWGQGTQVTVSS”, the “polyreactivity (PSR sort gate)” value was “high polyreactivity”.

As for “QVQLGESGGGLVQAGGSLRLSCAASGSMFYSNARGWYRQAPGTERELVASIRGSGVSTYYADSVKGRFTISRDNAKNTVYLPMNSLKPEDTAVYDCAPRYGRSYFGYYYWGQGTQVTVSS”, the “polyreactivity (PSR sort gate)” value was “high polyreactivity”.

As to “QVQLGESGGGLVQAGGSLRLSCAASGSTFITYAMGLYRQAPGKERELVAAITRGGRRYYADSVKGRFTISRDNAKNTVYLQMNSLKPEDTAVYYCAARDWASHTPFDYWGQGTQVTVSS”, the “polyreactivity (PSR sort gate)” value is on record as “high polyreactivity”.

Turning to “QVQLGESGGGLVQAGGSLRLSCAASGSTFNIYAMGWSRQSPGNERELVAAISSCGGRTYYADSVKGRFTISLDNAKNTVYLQMNSVKPEDTAVYYCAAVRSYYRGYDYWGQGTQVTVSS”, the “polyreactivity (PSR sort gate)” value is reported as “high polyreactivity”.

Take “QVQLGESGGGLVQAGGSLRLSCAASGSTFRINAMGWYRQAPGKERELVADINSGGNTTYADSVKGRFTISRDNAKNTVYLQMNSLKPEDTAVYYCAAPRTYYSELTSPYDYCGQGTQVTVSS”: the “polyreactivity (PSR sort gate)” value was “low polyreactivity”.

Turning to “QVQLGESGGGLVQAGGSLRLSCAASGSTFVRYAMGWYRQAPGKERELVAGISYSGGRTYYADSVKGRFTISRDNAKNTVYLQMNSLKPEDTAVYYCAAEGTTSWWVKYGYWGQGTQVTVSS”, the “polyreactivity (PSR sort gate)” value is given as “low polyreactivity”.

Turning to “QVQLGESGGGLVQAGGSRRLSCAASGLIFASNAMGWYRQAPGKEREFDAAISISGGSTYYADSVKGRFTISRDNAKNTVYLQMNSLKPEDTAVYYCAAKLYTVRRPELDYWGQGTQVTVSS”, the “polyreactivity (PSR sort gate)” value is recorded as “low polyreactivity”.

Take “QVQLGESGGGLVQAVGSLRLSCAASGITFVYYAMGWSRQEPGKERELVSSISSADNTNYADSVKGRFTISRDNAKNTVYLQMNSLKPEDTAVYYCAADYWWHLRHYSTGGYWGQGTQVTVSS”: the “polyreactivity (PSR sort gate)” value was “low polyreactivity”.

As for “QVQLGESGGRLVQAGGSLRLSCAASGSTFPTNAMGWSRQGPGKERELVAAITSTGSTYADSVKGRYTISRDNVKNTVYLQMNSVKPEDTAVYYCAADTQWTTPYDYWGQGTQVTVSS”, the “polyreactivity (PSR sort gate)” value was “low polyreactivity”.

In the case of “QVQLGESGVGLVQAGGSHRLSCAASGSTSPINAMGWYRQAPGKERELVAVISSSGGRTYYADSVKGRFTISRDNAKNTVYLQMNSLKPEDTAVYYCANRFSRRQPDYDYWGQGTQVTVSS”, the “polyreactivity (PSR sort gate)” value is on record as “high polyreactivity”.
